Experimental findings from US20220251219A1 (published 2022) are described below.

In test [1] the target is T1, recombinant human Sortilin (human, UniProt Q99523 78-830).
T1 construct: also called hSort; SORT1
Nature of the test: flow cytometry, 10 ug/ml antibody on 293 cells expressing recombinant human Sortilin, PE anti-human secondary.
Description: (§1) Cells were harvested, plated at 10⁵/ml in a 96 well plate, washed, and incubated in 100 μl PBS containing 10 μg/ml Mab and 2% FBS for 1 hour in ice. Cells were then washed twice and incubated in 100 μl PBS+2% FBS containing 5 μg/ml PE-conjugated anti-human secondary antibody for 30 minutes in ice. Cells were washed twice in cold PBS and data was acquired on a BD FACS Canto. Data analysis and calculation of MFI values was performed with FlowJo (TreeStar) software version 10.0.7.

The target in test [2] is T2, recombinant mouse Sortilin (mouse, UniProt Q6PHU5 74-825).
T2 construct: also called mSort
Nature of the test: flow cytometry, 10 ug/ml antibody on 293 cells expressing recombinant mouse Sortilin, PE anti-human secondary. In general terms: Flow cytometry measures light scatter and fluorescence of single cells or particles in a stream.
Description: as §1

In test [3] the target is human Sortilin (human, UniProt Q99523 78-830). Description: cell-based or functional assay.
The target in test [4] is mouse Sortilin (mouse, UniProt Q6PHU5 74-825). Nature of the test: cell-based or functional assay.
Test [5] deals with T3, human Sortilin expressed on HEK293T cells (human, UniProt Q99523 78-830).
T3 construct: also called hSort; HEK293T + hSort
Description: flow cytometry, antibody titration on HEK293T cells stably expressing human Sortilin, 4 C, apparent KD by non-linear fit.
Description: (§2) Antibodies were diluted in FACS buffer (PBS+2% FBS+0.01% NaAzide). After incubation on ice for 1 h, cells were washed three times in FACS buffer and incubated with anti-human PE conjugated secondary antibody (BD Biosciences, 1:100 dilution) for 30 min on ice. Then cells were washed twice in 200 μl FACS buffer, and subsequently analyzed on a FACS Canto or iQE FACS screening instrument (Intellicyt Corp).

Test [6] deals with T4, mouse Sortilin expressed on HEK293T cells (mouse, UniProt Q6PHU5 74-825).
T4 construct: also called msSort; mSort
Description: flow cytometry, antibody titration on HEK293T cells transiently expressing mouse Sortilin, 4 C, apparent KD by non-linear fit.
Description: as §2

B1: anti-Sortilin antibody S-78 (antibody, V domains shown)
VH: QLQLQESGPGLVKPSETLSLTCTVSGGSISSSDYYWGWIRQPPGKGLEWIGSIYYSGSTYYNPSLKSRVTISVDTSKNQFSLKLSSVTAADTAVYYCARSLAMSGAYFDLWGRGTLVTVSS
VL: not shown
notes: Tested as full IgG made in yeast
B1: the MFI binding in test [1] was found to be 7120 MFI; in test [2], 7930 MFI.

B2: anti-Sortilin antibody S-81 (antibody, V domains shown)
VH: QLQLQESGPGLVKPSETLSLTCTVSGGSISSSSYYWGWIRQPPGKGLEWIGSIYYSGSTYYNPSLKSRVTISVDTSKNQFSLKLSSVTAADTAVYYCARERWDLGHGMDVWGQGTTVTVSS
VL: not shown
B2: the “Percent reduction of Sortilin levels in U251 cells” value (“Percent reduction … in U251 cells” below) in test [3] was 18.2%. For the same molecule, the “Percent reduction of Sortilin levels in N2A cells” value (shortened to “Percent reduction … in N2A cells”) in test [4] amounted to 51.3%.

B3: anti-Sortilin antibody S-81 (antibody, V domains shown)
VH: QLQLQESGPGLVKPSETLSLTCTVSGGSISSSSYYWGWIRQPPGKGLEWIGSIYYSGSTYYNPSLKSRVTISVDTSKNQFSLKLSSVTAADTAVYYCARERWDLGHGMDVWGQGTTVTVSS
VL: not shown
notes: as for B1
For the molecule B3, the MFI binding amounted to 8940 MFI in test [1] and 16600 MFI in test [2].

B4: anti-Sortilin antibody S-26 (antibody, V domains shown)
VH: EVQLVESGGGLVKPGGSLRLSCAASGFTFSSYSMNWVRQAPGKGLEWVSSISSSSSYIYYADSVKGRFTISRDNAKNSLYLQMNSLRAEDTAVYYCARDRLGRGYKWNWFDPWGQGTLVTVSS
VL: DIQMTQSPSSVSASVGDRVTITCRASQGIDSWLAWYQQKPGKAPKLLIYAASSLQSGVPSRFSGSGSGTDFTLTISSLQPEDFATYYCQQGNSLPPITFGGGTKVEIK
For the molecule B4, the “Percent reduction … in U251 cells” value in test [3] came to 17.1%. Besides, the “Percent reduction … in N2A cells” value in test [4] stood at 47.3%.

B5: anti-Sortilin antibody S-84 (antibody, V domains shown)
VH: QLQLQESGPGLVKPSETLSLTCTVSGGSISSSSYYWGWIRQPPGKGLEWIGSISYSGSTYYNPSLKSRVTISVDTSKNQFSLKLSSVTAADTAVYYCARGGTTWLVADVWGQGTMVTVSS
VL: not shown
notes: as for B1
For the molecule B5, the MFI binding in test [1] stood at 9240 MFI; in test [2] it was 15400 MFI.

B6: anti-Sortilin antibody S-55 (antibody, V domains shown)
VH: QVQLQESGPGLVKPSETLSLTCAVSGYSISSGYYWGWIRQPPGKGLEWIGSIYHSGSTYYNPSLKSRVTISVDTSKNQFSLKLSSVTAADTAVYYCARGRPELGWDKYFQHWGQGTLVTVSS
VL: DIQMTQSPSSVSASVGDRVTITCRASQGISRWLAWYQQKPGKAPKLLIYAASSLQSGVPSRFSGSGSGTDFTLTISSLQPEDFATYYCQQANALPTFGGGTKVEIK
For B6, the “Percent reduction … in U251 cells” value in test [3] was 73%. The “Percent reduction … in N2A cells” value in test [4] is 67.7%.

B7: anti-Sortilin antibody S-61 (antibody, V domains shown)
VH: QVQLQESGPGLVKPSETLSLTCAVSGYSISSGYYWGWIRQPPGKGLEWIGSIYHSGSTYYNPSLKSRVTISVDTSKNQFSLKLSSVTAADTAVYYCARGSPRFYYGSGSYLDLFDIWGQGTMVTVSS
VL: EIVMTQSPATLSVSPGERATLSCRASQSVSSNLAWYQQKPGQAPRLLIYGASTRATGIPARFSGSGSGTEFTLTISSLQSEDFAVYYCQEYLNYPITFGGGTKVEIK
Turning to B7, in test [3], the “Percent reduction … in U251 cells” value was determined as 70.3%. Further, the “Percent reduction … in N2A cells” value in test [4] turned out to be 62.7%.

B8: anti-Sortilin antibody S-6 (antibody, V domains shown)
VH: not shown
VL: EIVMTQSPATLSVSPGERATLSCRASQSVSSNLAWYQQKPGQAPRLLIYGASTRATGIPARFSGSGSGTEFTLTISSLQSEDFAVYYCQQVANYPRTFGGGTKVEIK
In the case of B8, in test [3], the “Percent reduction … in U251 cells” value is 42.5%. Moreover, the “Percent reduction … in N2A cells” value in test [4] was 45.1%.

B9: anti-Sortilin antibody S-83 (antibody, V domains shown)
VH: QLQLQESGPGLVKPSETLSLTCTVSGGSISSSSYYWGWIRQPPGKGLEWIGSIYYSGSTYYNPSLKSRVTISVDTSKNQFSLKLSSVTAADTAVYYCARGSPTWLRDYYMDVWGKGTTVTVSS
VL: EIVLTQSPATLSVSPGERATLSCRASQSVSSNLAWYQQKPGQAPRLLIYGASTRATGIPARFSGSGSGTEFTLTISSLQSEDFAVYYCQQYNAFPPTFGGGTKVEIK
notes: as for B1
As to B9, the MFI binding in test [1] was 9300 MFI.

B10: anti-Sortilin antibody S-69 (antibody, V domains shown)
VH: QVQLQESGPGLVKPSQTLSLTCTVSGGSISSGGYYWSWIRQHPGKGLEWIGYIYYSGSTYYNPSLKSRVTISVDTSKNQFSLKLSSVTAADTAVYYCARDRGGTHFGADHYYYGMDVWGQGTMVTVSS
VL: EIVMTQSPATLSVSPGERATLSCRASQSVSSSLAWYQQKPGQAPRLLIYGASTRATGIPARFSGSGSGTEFTLTISSLQSEDFAVYYCQQAADWPITFGGGTKVEIK
notes: as for B1
Consider B10, for which the MFI binding amounted to 8580 MFI in test [1] and 1890 MFI in test [2].

B11: anti-Sortilin antibody S-73 (antibody, V domains shown)
VH: QVQLQESGPGLVKPSQTLSLTCTVSGGSISSGTYYWSWIRQHPGKGLEWIGYIYYSGSTYYNPSLKSRVTISVDTSKNQFSLKLSSVTAADTAVYYCARGVGRYRVADYWGQGTLVTVSS
VL: EIVLTQSPATLSLSPGERATLSCRASQSVSSYLAWYQQKPGQAPRLLIYDASNRATGIPARFSGSGSGTDFTLTISSLEPEDFAVYYCQQASVYPPITFGGGTKVEIK
notes: as for B1
B11: the MFI binding came to 8070 MFI in test [1] and 7670 MFI in test [2].

B12: anti-Sortilin antibody S-74 (antibody, V domains shown)
VH: QVQLQESGPGLVKPSQTLSLTCTVSGGSISSGTYYWSWIRQHPGKGLEWIGYIYYSGSTYYNPSLKSRVTISVDTSKNQFSLKLSSVTAADTAVYYCARGVGRYRVADYWGQGTLVTVSS
VL: EIVMTQSPATLSLSPGERATLSCRASQSVSSYLAWYQQKPGQAPRLLIYDSSNRATGIPARFSGSGSGTDFTLTISSLEPEDFAVYYCQQETNMPPITFGGGTKVEIK
notes: as for B1
As for B12, the MFI binding was determined as 9210 MFI in test [1] and 7300 MFI in test [2].

B13: anti-Sortilin antibody S-14 (antibody, V domains shown)
VH: QVQLVQSGAEVKKPGASVKVSCKASGYTFTSYYMSWVRQAPGQGLEWMGIINPSGGSTSYAQKFQGRVTMTRDTSTSTVYMELSSLRSEDTAVYYCARDPSGIAAAGPASRYYYGMDVWGQGTTVTVSS
VL: DIQMTQSPSSLSASVGDRVTITCRASQSISSYLNWYQQKPGKAPKLLIYGASSLQSGVPSRFSGSGSGTDFTLTISSLQPEDFATYYCQQHYVGPFTFGGGTKVEIK
With B13, the “Percent reduction … in U251 cells” value in test [3] came out at 75.4%. Further, in test [4], the “Percent reduction … in N2A cells” value was 58.5%.

B14: anti-Sortilin antibody S-19 (antibody, V domains shown)
VH: QVQLVQSGAEVKKPGSSVKVSCKASGGTFSSYAISWVRQAPGQGLEWMGGIIPIFGTASYAQKFQGRVTITADESTSTAYMELSSLRSEDTAVYYCARESRIPGSGYYYYYGMDVWGQGTTVTVSS
VL: DIQMTQSPSSLSASVGDRVTITCRASQSISSYLNWYQQKPGKAPKLLIYSASSLQSGVPSRFSGSGSGTDFTLTISSLQPEDFATYYCQQTDGKPPTFGGGTKVEIK
B14: the “Percent reduction … in U251 cells” value in test [3] came to 93.4%. The “Percent reduction … in N2A cells” value in test [4] stood at 86.5%.

B15: anti-Sortilin antibody S-15-10-13 (antibody, V domains shown)
VH: QVQLVQSGAEVKKPGASVKVSCKASGYTFTKYYMSWVRQAPGQGLEWMGIINPIGGSTSYARKFQGRVTMTRDTSTSTVYMELSSLRSEDTAVYYCARDPSGIAAAYPASRYNYGMDVWGQGTTVTVSS
VL: EIVMTQSPATLSVSPGERATLSCRASQSVSSNLAWYQQKPGQAPRLLIYGASTRATGIPARFSGSGSGTEFTLTISSLQSEDFAVYYCQQARLGPWTFGGGTKVEIK
Turning to B15, the Kd stood at 2.88 nM in test [5] and 4.07 nM in test [6].

B16: anti-Sortilin antibody S-15-6-12 (antibody, V domains shown)
VH: QVQLVQSGAEVKKPGASVKVSCKASGYTFTSRYMSWVRQAPGQGLEWMGIINPVGGSTSYAQKFQGRVTMTRDTSTSTVYMELSSLRSEDTAVYYCARDPSGIALAGPGSRYYRGMDVWGQGTTVTVSS
VL: EIVMTQSPATLSVSPGERATLSCRASQSVSSNLAWYQQKPGQAPRLLIYGASTRATGIPARFSGSGSGTEFTLTISSLQSEDFAVYYCQQARLGPWTFGGGTKVEIK
B16: the Kd in test [5] was found to be 3.84 nM; in test [6] it was 6.62 nM.

B17: anti-Sortilin antibody S-76 (antibody, V domains shown)
VH: QVQLQESGPGLVKPSQTLSLTCTVSGGSISSGGYYWSWIRQHPGKGLEWIGSIYYSGSTYYNPSLKSRVTISVDTSKNQFSLKLSSVTAADTAVYYCARGVGIQQQLVLGFDPWGQGTLVTVSS
VL: DIQMTQSPSSLSASVGDRVTITCRASQSISSFLNWYQQKPGKAPKLLISAASSLQSGVPSRFSGSGSGTDFTLTISSLQPEDFATYYCQQSYREPITFGGGTKVEIK
notes: as for B1
Regarding B17, the MFI binding in test [1] came out at 9680 MFI; in test [2], 4180 MFI.
